Assay results: the nanobody polyreactivity screen of Harvey et al. (2022)

test: yeast display, Sf9 membrane polyspecificity reagent, FACS + sequencing; frameworks hold sequencing errors
Summary of the method: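 Genes from sorted yeast were amplified by colony PCR, read by MiSeq 2 × 250 sequencing and filtered on CDR length. These cells carried a synthetic nanobody library in Saccharomyces cerevisiae BJ5465 and were sorted by FACS into low and high (top ~1%) gates on anti-HA and streptavidin fluorescence. Polyreactivity is labelled according to the gate of origin.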

| Sequence | polyreactivity (PSR sort gate) |
| --- | --- |
| QVQLVESGGGLVQPGGSLRLSCAASGRTFTKNAMGWYRQAPGKERELVAAISISGGSTYYADSVKGRFTISRDNAKNTVYLLMNSLKPEDTAVYYCAADVVTYLSYTLDYWGQGTQVTVSS | low polyreactivity |
| QVQLVESGGGLVQPGGSLRLSCAASGSIDCYGMGWYRQAPGKERELVAIITSVYSTYYADSVKGRFKISRDNAKNTVYLQMNSLKPEDTAVYYCAATAAYFYGQFYYWGQGTQVTVSS | high polyreactivity |
| QVQLVESGGGLVQPGGSLRLSCAASGSIFLRYAMGWYRQAPGKERELVAGITSGGSTNYADSVKGRFTISRDNAKNTVYLQMNSLKPEDTAVYYCNKDLPDWGQGTQVTVSS | low polyreactivity |
| QVQLVESGGGLVQPGGSLRLSCAASGSIFYCNAMGSYRQAPGKEREFVAGITTSGGSTYYADSVKGRFTISRDNAKNTVYLQMNSLKPDDTAVYYCNKVWVYAVTPSSWYKYGSWGQGNQVTVSS | low polyreactivity |
| QVQLVESGGGLVQPGGSLRLSCAASGSIVKSYAMGWYRQAPGKERELVAAITWRSGRTYYADSVKGRFTISRDNAKNTVYLQMNSLKPEDTAVYYCAADDTSYYIYSYDYWGQGTQVTVSS | low polyreactivity |
| QVQLVESGGGLVQPGGSLRLSCAAYRSTFTDYDKGWYRQAPGKERELVAAITSGGSTNYADSVKGRFTISRDNAKNTFYLQLNSLKPEDTAVYYCAAADSDRKYDYWGQGTQVTVSS | low polyreactivity |
| QVQLVESGGGLVQPGGSLRLSCSASGSIFRVYGMGWYRQAPGKERELVAAITWSGGSTYYADSVKGRFSISRDKAKNTVYLQQNSLKPEDTAVYYCAARARPRYYRPPYDYWGQGTQVTVSS | high polyreactivity |
| QVQLVESGGGLVQPGGSLRLSGAASGRILTYYAMGWYRQAPGKERELFAAISWRAGSTYYADSVKGRFTISRDNAKNTVYLQMNSLKPEDTAVYYCAAKPYYIPTRTYSHYNYWGQGTLVTVSS | high polyreactivity |
| QVQLVESGGGLVQSGGILLLSCAASGITFGRNAMGWYRQAPGKEGELVAAISRGGSTNYADSVKGRFTISRDNAKNTVYLQMNRLKPEDTAVYYCATAYRGRAWGYDYWGQGTQVTVSS | high polyreactivity |
| QVQLVESGGGLVQSGGSLRLSCAACGGTFYRYAMGWYRQAPGKERELVAAITSGSSTYYADSVKGRFTISRDNAKNTVYLQMNSLTPEDTAVYYCAAARYSRLSRTRPGKYGYWGQGTQVTVST | low polyreactivity |
| QVQLVESGGGLVQSGGSLRLSCAASGFSFRYYAMGWYRQAPGKERELVAAITQSGGTTYYADSVKGRFTISRDNAKNTVYLQMNSLKPEDTAVYYCNGYGYGFTGKGDYWGQGTQVTVSS | high polyreactivity |
| QVQLVESGGGLVQSGGSLRLSCAASGFTFYRYTMGWYRQAPGKERELVAISSDGSTNYADSVKGRFTISRDNAKNTVYLQMNSLKPEDTAVYYCNAVYYNWIGFDYWGQGTQVTVSS | low polyreactivity |
| QVQLVESGGGLVQSGGSLRLSCAASGGIFGINAMGWYRQAPGKEREFVAAITASGGTTYYADSVKGRFTISRDNAKNTVYLQMNRLKPEDTAVYYCAKRYRSYDYVWYEYWGQGTQVTVSS | high polyreactivity |
| QVQLVESGGGLVQSGGSLRLSCAASGINFLYYAMGWYIQAPGKERELVARINRSGGSTYYADSVKGRFTISRDNAKYTVYLQMNSLKPEDSAVYYCAADYLYRSPAYEHYYWGQGTQVTVSS | high polyreactivity |
| QVQLVESGGGLVQSGGSLRLSCAASGITFFFNAMGWYRQAPGKERELVAPITSGGGSTYYADSVKGRFTISRENAKNTVYLQMNSLKPEDTAVYYCAAEWSYGGMDYWGQGTQVTVSS | low polyreactivity |
| QVQLVESGGGLVQSGGSLRLSCAASGRIFDENAMGWYRQAPGKERELVAAITGGDSTNYADSVKGRFTISRDNAKNTVYLQMNSLKPEDTAVYYCAVDVIYYWAEDYDYWGQGTQVTVSS | low polyreactivity |

| Sequence | polyreactivity (PSR sort gate) |
| --- | --- |
| QVQLVESGGGLVQSGGSLRLSCAASGRIFSYYTIGWYRHEPGKEREIVAAITWSGGSTYYADSVKGRFTISRDNAKNTVFLQLNRLKPEDTAVYYCNRVAPHDLRNRQEDNYWGQGTQVTVSS | low polyreactivity |
| QVQLVESGGGLVQSGGSLRLSCAASGRIFWYNAMRWYSQAPGKDRELVARITRGTRTYYADSVKGRFTISRDNAKNTVYLQMNSLKPEDTAVYYCRLQFSYTPHYDYWGQGTQVTVSS | high polyreactivity |
| QVQLVESGGGLVQSGGSLRLSCAASGRILSYNTMGSYRQAPGKERELVAAISRGGSTYYADSVKGRFTISRDNAKNTVYLQMNSLKPEDTAVYYCNALLPPGSRKYNYWGQGTQVTVSS | high polyreactivity |
| QVQLVESGGGLVQSGGSLRLSCAASGRTFGGYAMGWYRQAPGKERELVAAIRRSGGSTYYADSVKGLFTISRDNAKNTFYLQMKSMKPEDTAVYYCAAYGIYNVRIYYLGQGTQVTVSS | high polyreactivity |
| QVQLVESGGGLVQSGGSLRLSCAASGRTFNANVMGWYRPAPGKERELVAAITYSGGSTYYADSVKGRFTISRDNAKNTVYLQMNSLKPEDTAVYYCAADYVYTFYYWGQGTQVTVSS | low polyreactivity |
| QVQLVESGGGLVQSGGSLRLSCAASGSIFDFYVMGWYRQAPGKERELVAAITWSDGSTYYADSVKGRFTISRDNAKNTVYLQMNSLKPEDTAVYYCNAGYFPLLGYPADAIGYDYWGQGTQVTVSS | low polyreactivity |
| QVQLVESGGGLVQSGGSLRLSCAASGSIFNRYAMGWYRQAPGKERELVAAISARGGSTYYADSVKGRFTISRDNAKNTVYLQMNSLKPEDTAVYYCAARRQGDYYYWGQGTQVTVSS | high polyreactivity |
| QVQLVESGGGLVQSGGSLRLSCAASGSTIFRYAMGWSRQAPGKERELVAAISWSGASTYYADSVKGRFTISRDNAKNPVYLHMNSQKPEDTAVYYCAARSRWYDAAGYPKYYYWGHGTQVTVSS | high polyreactivity |
| QVQLVESGGGLVQSGGSLRLSCAASGSTVTQYVMGWYRQAPGKERELVAAISDSGSTYYADSVKGRFTISRDKAKNTVYLQMNSLKPEDTAVYYCAAAAPYHGLLYEGDYGGQGTQVTVSS | low polyreactivity |
| QVQLVESGGGLVQSGGSLRLSGAASGSTYGLNAMGWYRQAPRKEMELVAAITRSDITNYADSVNGRFRISRDNAKNTVYLQMNSLKPEDTAVYYCNKTPDRHRRYFGYGYWGQGTQVTVSS | low polyreactivity |
| QVQLVESGGGLVQSGGSLRLSSAASGYTFWAYPMGWYRQAPGKERELVAGISSRGSRTYYADSVKGRFTISRDNAKNTVYLQMNSLKPEDTAVYFCNALRTAQGYYPPLDYWGQGTQVTVSS | high polyreactivity |
| QVQLVESGGGLVQSGGSLRLTWAASGFTFNRYAMGWYRQAPGKEMELVAAITSRSGITYYADSVKGRFTISRDNAKNTVYLQMNSLKPEDTAVYYCAAYVSRSTEFDYGFWGQGTQVTVSS | high polyreactivity |
| QVQLVESGGGLVQSRVSLRLSCAASGRTIYVNAMGWYRQAPGKEREFVATISGGGSTKYADSVKGRFTISRDNAKNTVYLQMNSLKPEDTAVYYCARRRERYTADSRGYGYWGQGTQVTVSS | low polyreactivity |
| QVQLVESGGGLVQTGGSLRLSCAASGRIFRSYAMGWYRPAPGKERELVAAISGSGGSTYYADSVKGRFTISRDNAKNTVYVQMNSLKPEDTAVYYCNACKVHPFSTRFYYWGQGTQVTVSS | low polyreactivity |
| QVQLVESGGGLVQTGGSLRLSCAASGSIFGEYAMGWYRQAPGKEREFVADITWSDGSTYYADSVKGRFTISRDNAKNTVYLQMNSLKPEDTAVYYCAADSVLDRPVLYLWPWYLGDYWGQGTQVTVSS | low polyreactivity |
| QVQLVESGGGLVQTGGSLRLSCAASGSTFEYNAMGWYRQAPGKERELVAAITWTGGSRYYADSVKGRFTISRDNAKNSVYFQMNSLKPEDTAVYYCNAVSYVDIWDDRRYYYWGQGTQVTVSS | low polyreactivity |
